First the molecules themselves.
B1: SNAP91 (parent)
chain: FGGSFMAPSPSPVTPAQNNLLQPN

The results in this text go back to the supplement of paper PMC10567573.
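Further: lentivirally expressed fusions sorted by FACS into six bins by GFP to DsRed ratio, PSI derived from sequencing read proportions per bin multiplied by bin number.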

This data set covers variants of B1. As to the kind of experiment: protein stability index of a GFP-peptide fusion (GPS, HEK-293T) (PSI 1-6); higher = more stable. Conditions: c terminus: a fixed tail appended.
Take FGGSFMAPSWSPVTPAQNNLLQPN: the protein stability index is 2.51.

Regarding FGGSFMAPSQSPVTPAQNNLLQPN, the protein stability index amounted to 2.7. In the case of FGGSFMAPSNSPVTPAQNNLLQPN it was 1.51. Under FGGSFMAPSYSPVTPAQNNLLQPN stands 2.38; under FGGSFMAPSMSPVTPAQNNLLQPN, 3.19. In the case of FGGSFMAPSESPVTPAQNNLLQPN, the protein stability index amounted to 1.22. Under FGGSFMAPSASPVTPAQNNLLQPN stands 4.52; under FGGSFMAPSFSPVTPAQNNLLQPN, 2.89. Under FGGSFMAPSGSPVTPAQNNLLQPN stands 2.18. In the case of FGGSFMAPSCSPVTPAQNNLLQPN it was 2.45. FGGSFMAPSSSPVTPAQNNLLQPN: the protein stability index worked out at 2.49. In the case of FGGSFMAPSHSPVTPAQNNLLQPN it was 2.52; in that of FGGSFMAPSVSPVTPAQNNLLQPN, 1.58; in that of FGGSFMAPSKSPVTPAQNNLLQPN, 3.1. In the case of FGGSFMAPSDSPVTPAQNNLLQPN it was 2.72. Take FGGSFRAPSPSPVTPAQNNLLQPN: the protein stability index came out at 2.24. In the case of FGGSFVAPSPSPVTPAQNNLLQPN it was 2.08; in that of FGGSFMAPSPSLVTPAQNNLLQPN, 1.61.

Turning to FGGSFMAPSPSIVTPAQNNLLQPN, the protein stability index came out at 1.94. In the case of FGGSFMAPSPSWVTPAQNNLLQPN it was 1.83; in that of FGGSFMAPSPSHVTPAQNNLLQPN, 2.53. For FGGSFMAPSPSCVTPAQNNLLQPN, the protein stability index is 2.72. In the case of FGGSFMAPSPSDVTPAQNNLLQPN it was 1.8; in that of FGGSFMAPSPSEVTPAQNNLLQPN, 1.77; in that of FGGSFMAPSPSMVTPAQNNLLQPN, 2.62. Regarding FGGSFMAPSPSNVTPAQNNLLQPN, the protein stability index worked out at 2.31. Under FGGSFMAPSPSKVTPAQNNLLQPN stands 1.47; under FGGSFMAPSPSTVTPAQNNLLQPN, 1.01. Under FGGSFMAPSPSRVTPAQNNLLQPN stands 2.17; under FGGSFMAPSPSAVTPAQNNLLQPN, 2; under FGGSFMAPSPSGVTPAQNNLLQPN, 1.72. In the case of FGGSFMAPSPSVVTPAQNNLLQPN it was 1.73. For FGGSFMAPSPSYVTPAQNNLLQPN, the protein stability index came out at 2.09.

For FGGSFMAPSPSFVTPAQNNLLQPN, the protein stability index came out at 1.62. FGGSFMAPSPSSVTPAQNNLLQPN: the protein stability index worked out at 1.27. In the case of FGGSFMAPSPSQVTPAQNNLLQPN it was 2.21; in that of FGGSIMAPSPSPVTPAQNNLLQPN, 4.03; in that of FGGSAMAPSPSPVTPAQNNLLQPN, 3.83. In the case of FGGSFMAPVPSPVTPAQNNLLQPN it was 1.62; in that of FGGSFMAPEPSPVTPAQNNLLQPN, 1.89. On to FGGSFMAPKPSPVTPAQNNLLQPN, for which the protein stability index is 1.76.

Consider FGGSFMAPMPSPVTPAQNNLLQPN, for which the protein stability index worked out at 2.31. Under FGGSFMAPQPSPVTPAQNNLLQPN stands 1.43.

As to FGGSFMAPWPSPVTPAQNNLLQPN, the protein stability index was found to be 3.59. Under FGGSFMAPRPSPVTPAQNNLLQPN stands 1.89; under FGNSFMAPSPSPVTPAQNNLLQPN, 3.1; under FGTSFMAPSPSPVTPAQNNLLQPN, 2.44. In the case of FGVSFMAPSPSPVTPAQNNLLQPN, the protein stability index was 2.37.

Take FGDSFMAPSPSPVTPAQNNLLQPN: the protein stability index turned out to be 2.7.

As for FGGSFMAPSPQPVTPAQNNLLQPN, the protein stability index amounted to 3.14. Under FGGSFMAPSPMPVTPAQNNLLQPN stands 2.83; under FGGSFMAPSPKPVTPAQNNLLQPN, 1.98.

For FGGSFMAPSPRPVTPAQNNLLQPN, the protein stability index is 1.68. Consider FGGSFMAPSPEPVTPAQNNLLQPN, for which the protein stability index was 2.38. Under FGGSFMAPSPVPVTPAQNNLLQPN stands 3.42; under FGGSFMAPSPLPVTPAQNNLLQPN, 2.84. In the case of IGGSFMAPSPSPVTPAQNNLLQPN it was 3.99; in that of NGGSFMAPSPSPVTPAQNNLLQPN, 3.94; in that of FGGSFMAPSPSPVCPAQNNLLQPN, 4.16. In the case of FGGSFMAPSPSPVMPAQNNLLQPN it was 2.4. Turning to FGGSFMAPSPSPVDPAQNNLLQPN, the protein stability index stood at 1.29. Under FGGSFMAPSPSPVNPAQNNLLQPN stands 1.89; under FGGSFMAPSPSPVEPAQNNLLQPN, 1.31; under FGGSFMAPSPSPVIPAQNNLLQPN, 1.7. Under FGGSFMAPSPSPVQPAQNNLLQPN stands 2.43; under FGGSFMAPSPSPVFPAQNNLLQPN, 1.79. With FGGSFMAPSPSPVGPAQNNLLQPN, the protein stability index is 2.08.

As to FGGSFMAPSPSPVKPAQNNLLQPN, the protein stability index was found to be 2.84. In the case of FGGSFMAPSPSPVLPAQNNLLQPN it was 2.13; in that of FGGSFMATSPSPVTPAQNNLLQPN, 3.12; in that of FGGSFMAMSPSPVTPAQNNLLQPN, 4.32. Consider FGGSFMAESPSPVTPAQNNLLQPN, for which the protein stability index worked out at 2.24.

Regarding FGGSFMAVSPSPVTPAQNNLLQPN, the protein stability index is 2.41. For the variant FGGSFMACSPSPVTPAQNNLLQPN, the protein stability index was found to be 1.64. Regarding FGGSFMAWSPSPVTPAQNNLLQPN, the protein stability index is 3.12.

Turning to FGGSFMADSPSPVTPAQNNLLQPN, the protein stability index came out at 2.25.

For FGGSFMAQSPSPVTPAQNNLLQPN, the protein stability index was 2.92.

FGGSFMALSPSPVTPAQNNLLQPN: the protein stability index was 3.22. Under FGGSFMANSPSPVTPAQNNLLQPN stands 2.42; under FGGSFMAGSPSPVTPAQNNLLQPN, 2.67. In the case of FGGSFMAYSPSPVTPAQNNLLQPN it was 3.9; in that of FGGSFMARSPSPVTPAQNNLLQPN, 1.85; in that of FGGSFMAASPSPVTPAQNNLLQPN, 1.54. In the case of FGGSFMAFSPSPVTPAQNNLLQPN it was 2.53.

Turning to FGGSFMASSPSPVTPAQNNLLQPN, the protein stability index amounted to 2.89.

For FGGSFMAHSPSPVTPAQNNLLQPN, the protein stability index was 2. Under FGGSFMDPSPSPVTPAQNNLLQPN stands 1.91; under FGGSFMHPSPSPVTPAQNNLLQPN, 3.

For the variant FGGSFMEPSPSPVTPAQNNLLQPN, the protein stability index came out at 2.06. Turning to FGGSFMLPSPSPVTPAQNNLLQPN, the protein stability index turned out to be 1.87. Take FGGSFMQPSPSPVTPAQNNLLQPN: the protein stability index worked out at 2.59. In the case of FGGSFMVPSPSPVTPAQNNLLQPN it was 2.54; in that of FYGSFMAPSPSPVTPAQNNLLQPN, 2.53; in that of FRGSFMAPSPSPVTPAQNNLLQPN, 3.23.
